From patent US20200339699A1 (Innovent, published 2020)
Substitutions are numbered along the chain they refer to. Names and notes keep the numbering of the source.

B1: human BCMA on NCI-H929 cells (receptor)
chain: MLQMAGQCSQNEYFDSLLHACIPCQLRCSSNTPPLTCQRYCNASVTNSVKGTNAILWTCLGLSLIISLAVFVLMFLLRKINSEPLKDEFKNTGSGLLGMANIDLEKSRTGDEIILPRGLEYTVEECTCEDCIKSKPKVDSDHCFPLPAMEEGATILVTTKTNDYCKSLPAALSATEIEKSISAR
notes: BCMA-positive human multiple myeloma cell line NCI-H929 (ATCC CRL-9068); also called B-cell maturation antigen; CD269
B2: ADI-34832 (antibody, V domains shown)
VH: QITLKESGPTLVKPTQTLTLTCTFSGFSLSTSGVGVGWIRQPPGKALEWLALIYWNDEKRYSPSLKSRLTITKDTSKNQVVLTMTNMDPVDTAVYYCARDPGEQLQVFDYWGQGTLVTVSS
VL: DIQMTQSPSSVSASVGDRVTITCRASQGISSWLAWYQQKPGKAPKLLIYAASSLQSGVPSRFSGSGSGTDFTLTISSLQPEDFATYYCQQTLSLPITFGGGTKVEIK
notes: Yeast-expressed fully human antibody purified on protein A
B3: ADI-34859 (antibody, V domains shown)
VH: QLQLQESGPGLVKPSETLSLTCTVSGGSISSSSYYWGWIRQPPGKGLEWIGSISYSGSTYYNPSLKSRVTISVDTSKNQFSLKLSSVTAADTAVYYCARDRGDTILDVWGQGTMVTVSS
VL: B2 VL with V11L, G28S, S30N, W32Y, A34N, T91K, L92A, L94A
notes: as for B2
B4: ADI-34860 (antibody, V domains shown)
VH: B3 VH
VL: DIQMTQSPSSLSASVGDRVTITCRASQSISSYLNWYQQKPGKAPKLLIYAASSLQSGVPSRFSGSGSGTDFTLTISSLQPEDFATYYCQQKYDLLTFGGGTKVEIK
notes: as for B2
B5: ADI-34861 (antibody, V domains shown)
VH: B3 VH
VL: B4 VL with S31R, D93F, L94D, L95I
notes: as for B2
B6: ADI-34846 (antibody, V domains shown)
VH: QVQLVQSGAEVKKPGSSVKVSCKASGGTFSNYAISWVRQAPGQGLEWMGGIIPIFGTANYAQKFQGRVTITADESTSTAYMELSSLKSEDTAVYYCARGSGYYSSWLFDIWGQGTMVTVSS
VL: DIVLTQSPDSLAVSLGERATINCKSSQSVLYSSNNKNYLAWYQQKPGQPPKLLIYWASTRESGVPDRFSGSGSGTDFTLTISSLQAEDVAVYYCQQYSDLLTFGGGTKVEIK
notes: as for B2
B7: ADI-34854 (antibody, V domains shown)
VH: QVQLVESGGGVVQPGRSLRLSCAASGFTFSSYGMHWVRQAPGKGLEWVAVISYEGSNKYYADSVKGRFTISRDNSKNTLYLQMNSLRAEDTAVYYCARDTSSYGDASYGMDVWGQGTTVTVSS
VL: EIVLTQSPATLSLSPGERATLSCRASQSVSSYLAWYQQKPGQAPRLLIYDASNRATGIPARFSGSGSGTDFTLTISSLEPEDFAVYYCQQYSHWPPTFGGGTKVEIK
notes: as for B2
B8: ADI-34857 (antibody, V domains shown)
VH: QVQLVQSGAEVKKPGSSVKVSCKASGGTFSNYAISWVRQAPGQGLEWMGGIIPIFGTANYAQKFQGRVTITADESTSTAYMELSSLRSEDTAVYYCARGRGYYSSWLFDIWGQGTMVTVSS
VL: DIQMTQSPSSLSASVGDRVTITCQASQDITNYLNWYQQKPGKAPKLLIYDASNLETGVPSRFSGSGSGTDFTFTISSLQPEDIATYYCQQAFDLITFGGGTKVEIK
notes: as for B2
B9: human BCMA-His (receptor)
chain: MLQMAGQCSQNEYFDSLLHACIPCQLRCSSNTPPLTCQRYCNASVTNSVKGTNA
notes: Bought antigen (ACRO BIOSYSTEMS, BCA-H522Y); probably only the extracellular domain stood in the assay; also called hBCMA-His; monovalent human BCMA; not shown: His tag
B10: ADI-34848 (antibody, V domains shown)
VH: EVQLLESGGGLVQPGGSLRLSCAASGFTFDDYAMHWVRQAPGKGLEWVSGISWSSGSIGYADSVKGRFTISRDNAKNSLYLQMNSLRAEDTAVYYCAKDSPRRDSFGSIAFDIWGQGTMVTVSS
VL: not shown
notes: as for B2
B11: ADI-34849 (antibody, V domains shown)
VH: B10 VH with L5V, G16R
VL: EIVLTQSPATLSLSPGERATLSCRASQSVSSYLAWYQQKPGQAPRLLIYDASKRATGIPARFSGSGSGTDFTLTISSLEPEDFAVYYCQQASALPLTFGGGTKVEIK
notes: as for B2
B12: ADI-34850 (antibody, V domains shown)
VH: B10 VH with L5V, G16R
VL: EIVMTQSPATLSVSPGERATLSCRASQSVGSNLAWYQQKPGQAPRLLIYGASTRATGIPARFSGSGSGTEFTLTISSLQSEDFAVYYCQQSVNLPITFGGGTKVEIK
notes: as for B2

Tests used:
ADI-34848 scFv-hFc [1] = assay: flow cytometry on NCI-H929 cells, scFv-hFc
[2] = target: B1; assay: flow cytometry on NCI-H929 cells, yeast-expressed antibody
Protocol: The method is specifically as follows: [0293] 1. A human NCI-H929 (ATCC, CRL-9068) cell suspension was taken, adjusted to a cell density of 2×10⁶ cells/mL, and added to a 96-well microplate at 100 μL/well. The cell suspension was centrifuged at 400 G for 5 min and the supernatant was removed. [0294] 2. The anti-BCMA antibody solution was serially diluted in 3-fold gradient in PBS containing 0.1% bovine serum albumin (BSA) from a concentration of 400 nM for a total of 12 points, 100 μL of the dilution of the antibody was added to each well, and then the plate was incubated at 4° C. for 30 min [0295] 3. The mixture was centrifuged at 400 G for 5 min, and washed twice with PBS, and […] of a dilution of a secondary antibody (a phycoerythrin (PE) labeled goat anti-human IgG antibody, SouthernBiotech, final concentration: 5 μg/mL) in PBS (1% BSA) was added to each well. The plate was incubated at 4° C. for 30 min (in the dark). [0296] 4. Then the resulting solution was centrifuged at 400 G for 5min, and washed twice with PBS, and the cells were resuspended with 100 μL of PBS per well. Flow cytometry was performed on an Accuri C6 system (BD Bioscience) to detect PE positive signals, and MFI was calculated based on C6 software. The EC50 values were calculated using GraphPad software.

ADI-34848 scFv-hFc [3] = assay: BLI (ForteBio Octet Red96), scFv-hFc on AHC sensors, human BCMA-His in solution
Protocol: The kinetic constants of the antibody molecules were determined based on the biofilm layer interferometry (BLI) of a fiber optic biosensor.
The Fortebio instrument model used in the experiment was Octet Red96, and a ForteBio affinity assay was performed according to the existing method (Estep, P et al., High throughput solution Based measurement of antibody-antigen affinity and epitope binning MAbs, 2013.5 (2): p. 270-8). The assay is specifically as follows: [0317] 1. Half an hour before the experiment, an appropriate number of AHC sensors were taken according to the number of samples and soaked in the SD buffer (50 mL PBS+0.1% BSA +0.05% Tween-20). [0318] 2. SD buffer, scFv-hFc antibodies and human BCMA-His antigens (ACRO BIOSYSTEMS, BCA-H522Y), each of 100 μL were added to a 96-well half-area black polystyrene microplate respectively. [0319] 3. The plates were arranged according to the positions of the samples, the positions of the sensors were selected, and the operation procedures were set as: Baseline, Loading ˜1 nm, Baseline, Association, and Dissociation, each running for a time depending on the binding and dissociation rates of the sample, at a rotation speed of 1,000 rpm and a temperature of 30° C. [0320] 4.

Binder	EC50 [2]	further results
B1		binding result (ADI-34848 scFv-hFc [1]): binds
B2	34.1 nM	
B3	85.8 nM	
B4	144 nM	
B5	65.1 nM	
B6	136 nM	
B7	83.2 nM	
B8	25.2 nM	
B9		Kd (ADI-34848 scFv-hFc [3]): 71.1 nM; koff (ADI-34848 scFv-hFc [3]): 0.0145 s⁻¹; kon (ADI-34848 scFv-hFc [3]): 204000 M⁻¹ s⁻¹
B10	24.8 nM	
B11	9.11 nM	
B12	12.1 nM	
